According to patent publication US20100167321A1 (AICHI PREFECTURE, published 2010):

T1: HLA-A2402 molecule on T2-A24 cells (human, UniProt P04439-2 25-302 at identity 0.92))
T1 construct: whole, on cells; Cell-surface HLA-A2402 of T2-A24 transfectants; also called HLA-A24 molecules
T1 MHC heavy: not shown


Biological target: T1, HLA-A2402 molecule on T2-A24 cells
Experiment: MHC stabilization assay, T2-A24 cells with 10 µM peptide, anti-HLA-A2402 mAb staining, flow cytometry
Procedure: To be specific, each peptide with a concentration of 10 μM was incubated at 26° C. for 16 hours in a 200 μL RPMI1640 culture medium containing T2-A24 cells (2×10⁵ cells), 0.1% FCS, and 5×10⁻⁵ M β-mercaptoethanol, followed by a further incubation at 37° C. for 3 hours. After incubation, cell-surface HLA-A2402 molecules were stained with an anti-HLA-A2402 monoclonal antibody and the FITC-labeled antibody of (3) above. The expression level was determined by FACSCalibur and the mean fluorescence intensity (MFI) was recorded.

| % MFI increase [%] | Binder |
| --- | --- |
| 24 | KYEKAEIKEM (Synthetic peptide) [Ep296 (Ep-CAM 296-305 peptide KYEKAEIKEM)] |
| 16 | EMGEMHREL (Synthetic peptide) [Ep304 (Ep-CAM 304-312 peptide EMGEMHREL)] |

Second part, the binder before the results:

| Binder | % MFI increase [%] |
| --- | --- |
| NYKLAVNCF (Synthetic peptide) [Ep31 (Ep-CAM 31-39 peptide NYKLAVNCF)] | 85 |
| LFHSKKMDL (Synthetic peptide) [Ep225 (Ep-CAM 225-233 peptide LFHSKKMDL)] | 29 |
| YYVDEKAPEF (Synthetic peptide) [Ep250 (Ep-CAM 250-259 peptide YYVDEKAPEF)] | 57 |
| LYENNVITI (Synthetic peptide) [Ep185 (Ep-CAM 185-193 peptide LYENNVITI)] | 79 |
